{"source": "patent CN108503707A", "about": "(ZHEJIANG ACAD MEDICAL SCIENCES, dated 2018)", "binders": {"B1": {"name": "1号克隆株抗SAG1纳米抗体 (VHH)", "VHH": "HVQLVESGGGSVQAGGSLKLSCTASGYTSNNNCMAWYRQAPGKEPEGVAGIDSEGTTRYADSVKGRFTISKDNAKNTLYLQMNSLKPEDTGMYYCGAGPDRPARCQYDVWGQGTQVTVSS", "notes": "Tags or fusion parts from the vectors are not described; also called SAG1-1; 一号克隆株抗SAG1纳米抗体"}}, "target": "T1, 弓形虫重组SAG1蛋白(表面膜抗原1) (Toxoplasma gondii, UniProt P13664 48-306, limits assumed)", "T1 construct": "The vector tag (pET28a, Ni-NTA purified) is not described; In the BLI programme the loading step is called biotinylated antigen, but the sensor is APS; also called SAG1-m; SAG1重组抗原", "T1 sequence (looked up)": "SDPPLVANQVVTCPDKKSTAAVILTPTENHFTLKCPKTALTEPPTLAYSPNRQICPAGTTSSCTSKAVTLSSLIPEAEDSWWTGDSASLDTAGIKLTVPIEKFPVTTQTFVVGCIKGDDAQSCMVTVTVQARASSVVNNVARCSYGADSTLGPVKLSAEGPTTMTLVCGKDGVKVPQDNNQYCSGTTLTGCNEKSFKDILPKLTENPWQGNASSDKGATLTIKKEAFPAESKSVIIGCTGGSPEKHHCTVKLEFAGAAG", "assay": "BLI (ForteBio Octet Red), SAG1 on APS sensor, nanobody at 6.25-100 nM"}
{"binder": "B1", "values": [{"measurement": "Kd", "result": 1.66, "unit": "nM"}]}
